# Source: patent publication US20060110769A1, “Regulation of novel human prolyl 4-hydroxylases” (Bayer Aktiengesellschaft, priority 2001, published 2006)
# Target: mouse hypoxia inducible factor-1 alpha (mouse) (UniProt Q61221)
# Assay: cell-based or functional assay
# Sequence of mouse hypoxia inducible factor-1 alpha (mouse) (Q61221 whole entry): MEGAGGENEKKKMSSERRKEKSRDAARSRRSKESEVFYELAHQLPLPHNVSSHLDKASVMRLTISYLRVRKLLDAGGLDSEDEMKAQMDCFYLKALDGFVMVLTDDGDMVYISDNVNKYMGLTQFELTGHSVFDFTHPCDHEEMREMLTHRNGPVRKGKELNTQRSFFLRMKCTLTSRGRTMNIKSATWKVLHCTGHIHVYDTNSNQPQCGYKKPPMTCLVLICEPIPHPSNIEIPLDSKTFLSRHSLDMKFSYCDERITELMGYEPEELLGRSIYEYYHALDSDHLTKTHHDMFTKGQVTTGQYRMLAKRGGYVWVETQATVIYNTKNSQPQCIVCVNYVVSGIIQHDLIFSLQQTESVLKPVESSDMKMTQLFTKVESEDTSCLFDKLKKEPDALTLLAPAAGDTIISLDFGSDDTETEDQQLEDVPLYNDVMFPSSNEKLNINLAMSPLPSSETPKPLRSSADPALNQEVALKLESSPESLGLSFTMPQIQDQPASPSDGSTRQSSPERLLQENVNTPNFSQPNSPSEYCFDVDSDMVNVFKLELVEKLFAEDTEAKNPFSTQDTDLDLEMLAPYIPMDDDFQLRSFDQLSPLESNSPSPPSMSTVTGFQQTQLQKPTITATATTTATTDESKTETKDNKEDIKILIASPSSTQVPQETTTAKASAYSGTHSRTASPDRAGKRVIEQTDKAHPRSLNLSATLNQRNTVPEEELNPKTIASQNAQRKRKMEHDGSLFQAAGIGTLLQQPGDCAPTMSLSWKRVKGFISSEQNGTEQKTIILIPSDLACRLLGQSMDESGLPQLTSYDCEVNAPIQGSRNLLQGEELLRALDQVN
substance,measurement,value
"EGLN3, human HIF-prolyl-hydroxylase (from UniProt Q9H6Z9 1-239)","reduction of the transactivation activity of cotransfected HIF-1 alpha on the hypoxia responsive luciferase reporter (HEK/293 cells, equal amounts of each plasmid)",90%
